Substrate in series [1]: O=C(O)C(=O)C[C@H](O)CO
As to the kind of experiment: 2-ketoacid decarboxylase Kivd wild type, coupled assay, NADPH oxidation at 340 nm. As to conditions: other: wild type; BTO substrate; pH 7.5; 30.0 °C. In kind it is biochemical. Here is the method:
(§1) 2-Ketoacid decarboxylase (Kivd) and alcohol dehydrogenase (YqhD): The decarboxylase activity of Kivd was measured by a coupled enzymatic assay with AraC, AraD, and YqhD (Zhang et al., 2011. ChemSusChem 4:1068-1070). Excess AraC, AraD, and YqhD was used and the oxidation of NADPH was monitored at 340 nm. The assay mixture contained 1 mM NADPH, 1 μM AraC, 1 μM AraD, and 100 nM YqhD and 0.1-10 mM L-arabonate in assay buffer (100 mM Tris-HCl buffer, pH 7.5, 5 mM MgSO4, 0.5 mM ThDP) with a total volume of 0.1 ml. The mixture was incubated at 30° C. for one hour and 10 nM Kivd was added. The dehydrogenase activity of YqhD was assayed according to NADPH initial consumption rates in a coupled assay. The assay mixture contained 1 mM NADPH, 100 nM Kivd, 1 μM AraC, 1 μM AraD, and 0.1-10 mM L-arabonate in 100 μl of 100 mM Tris-HCl buffer (pH 7.5) with 5 mM MgSO4. The mixture was first incubated at 30° C. for one hour. Afterwards, 10 nM YqhD was added and the NADPH consumption rate was monitored.

Substrate in series [2]: O=CCCC(=O)C(=O)O
Described as above. To be noted: other: coupled assay, substrate from 0.1-10 mM L-arabonate, 1 mM NADPH, 0.5 mM ThDP, pH 7.5, 10 nM Kivd, 30.0 °C. In kind it is biochemical. Here is the method: as §1

Substrate in series [3]: O=C(O)C(=O)C[C@H](O)CO
Briefly: 2-ketoacid decarboxylase Kivd V461I mutant, coupled assay, NADPH oxidation at 340 nm. It counts as biochemical, Lactococcus lactis. To be noted: other: V461I mutant; BTO substrate; pH 7.5; 30.0 °C. The protocol:
as §1

Substrate in series [4]: O=CCCC(=O)C(=O)O
Described as above. It counts as biochemical, Lactococcus lactis. To be noted: other: V461I mutant, coupled assay, pH 7.5, 30.0 °C. The protocol:
as §1

Positions count from the first letter of the chain named. In names and notes the source's numbering stands.

B1: Lactococcus lactis 2-ketoacid decarboxylase Kivd, wild type (Lactococcus lactis subsp. lactis) (protein)
chain: MYTVGDYLLDRLHELGIEEIFGVPGDYNLQFLDQIISHKDMKWVGNANELNASYMADGYARTKKAAAFLTTFGVGELSAVNGLAGSYAENLPVVEIVGSPTSKVQNEGKFVHHTLADGDFKHFMKMHEPVTAARTLLTAENATVEIDRVLSALLKERKPVYINLPVDVAAAKAEKPSLPLKKENSTSNTSDQEILNKIQESLKNAKKPIVITGHEIISFGLEKTVTQFISKTKLPITTLNFGKSSVDEALPSFLGIYNGTLSEPNLKEFVESADFILMLGVKLTDSSTGAFTHHLNENKMISLNIDEGKIFNERIQNFDFESLISSLLDLSEIEYKGKYIDKKQEDFVPSNALLSQDRLWQAVENLTQSNETIVAEQGTSFFGASSIFLKSKSHFIGQPLWGSIGYTFPAALGSQIADKESRHLLFIGDGSLQLTVQELGLAIREKINPICFIINNDGYTVEREIHGPNQSYNDIPMWNYSKLPESFGATEDRVVSKIVRTENEFVSVMKEAQADPNRMYWIELILAKEGAPKVLKKMGKLFAEQNKS
notes: also expressed from pBDO-5 in E. coli fermentation (A5)
The kcat/Km is the turnover number divided by the Michaelis constant. In general, Km refers to the concentration of substrate that gives half-maximal velocity. A word on the kcat: it is the number of substrate molecules converted per active site and unit of time at saturation. On to B1, for which the kcat/Km in series [1] was determined as 7700 M⁻¹ s⁻¹. In addition, in series [2], the Km is listed as 4.8 mM and the kcat was 4.8 s⁻¹.

B2: Lactococcus lactis 2-ketoacid decarboxylase Kivd variant V461I (Lactococcus lactis subsp. lactis; V461I) (protein)
chain: B1 chain with V461I
notes: coupled with AraC/AraD/YqhD
Regarding B2, the kcat/Km worked out at 500 M⁻¹ s⁻¹ in series [3] and 2500 M⁻¹ s⁻¹ in series [4].

Values taken from patent US20170137855A1, “RECOMBINANT CELLS AND METHODS FOR NONPHOSPHORYLATIVE METABOLISM” (REGENTS OF THE UNIVERSITY OF MINNESOTA, priority 2015, published 2017).
